{"source": "patent US6001823A", "about": "“Treatment or prophylaxis of diseases caused by pilus-forming bacteria” (priority 1995, dated 1999)", "key": {"[1]": {"molecular_target": "T1, PapD (Escherichia coli, UniProt P15319)", "T1 sequence (P15319 22-239)": "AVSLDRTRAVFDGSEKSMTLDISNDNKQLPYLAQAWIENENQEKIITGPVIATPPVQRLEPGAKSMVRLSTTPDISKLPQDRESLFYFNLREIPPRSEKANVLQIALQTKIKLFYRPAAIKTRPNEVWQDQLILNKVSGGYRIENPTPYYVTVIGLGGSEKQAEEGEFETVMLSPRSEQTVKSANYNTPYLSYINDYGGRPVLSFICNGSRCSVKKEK", "assay": "Soluble inhibition ELISA: peptide inhibition of PapD binding to G1'-19'WT-coated wells", "parameters": "made in house; species or system E. coli", "details": "peptide in solution", "description": "In addition, the ability of water-soluble peptides to inhibit PapD binding to G1'-19'WT-coated wells in a soluble inhibition ELISA were tested, since peptide conformations may have been affected by binding to the plastic microtiter plates:\nMicrotiter wells were coated overnight at 4° C. with 50 μl of 2,5 pmol/50 μl of the G1'-19'WT peptide. The wells were washed with PBS and blocked with 3% bovine serum albumin (BSA). A 25-fold molar excess of each test peptide was pre-incubated with 100 pmoles PapD for 30 min. and the PapD-peptide solution was then added to the coated wells and incubated at 25° C. for 45 min in the presence of 3% BSA/PBS. The subsequent primary antibody, secondary antibody and developing steps are described above. The ability of the peptides to inhibit binding of PapD to the G1'-19'WT peptide was calculated by dividing the amount of PapD binding in the presence of peptide with the amount of PapD binding in the presence of water. 0% inhibition includes values where binding was greater than that of PapD pre-incubated with H2 O.\nThe % inhibition represents the percentage of PapD binding in the presence of the peptide compared to in the presence of water and are the average of two experiments performed duplicate: […]"}, "[2]": {"molecular_target": "T1, PapD", "assay": "ELISA: peptide inhibition of PapD binding to MBP-G1'-140' fusion protein", "parameters": "species or system E. coli", "details": "PapD preincubated with peptide at 1:25 ratio", "description": "The ability of the peptides to inhibit the binding of PapD to the MBP-G1'-140' fusion protein was then investigated using the following ELISA test:\nStock solutions of MBP-G1'-140' proteins in PBS were diluted to 0.1 μM with PBS. The wells of microtiter plates were coated with 50 μl of the protein solutions overnight at 4° C. The wells were washed with PBS, and blocked with 200 μl of 3% bovine serum albumin (BSA) in PBS for 2 hours at 25° C. The plates were washed vigorously three times with PBS and incubated with 50 μl of 1-5 μM PapD proteins in 3% BSA-PBS for 45 minutes at 25° C. The PapD was preincubated with each of the peptides at a 1:25 ratio for 30 min before being added to the wells. After three washings with PBS, the wells were incubated with a 1:500 dilution of rabbit anti-PapD antiserum in 3% BSA-PBS for 45 minutes at 25° C. After three washings with PBS, the wells were incubated with a 1:1000 dilution of goat antiserum to rabbit IgG coupled to alkaline phosphatase in 3% BSA-PBS for 45 minutes at 25° C. After three washings with PBS and three washings with developing buffer (10 mM diethanolamine, 0.5 mM MgCl2), 50 μl filtered 1 mg/ml p-nitrophenyl phosphate in developing buffer was added, the reaction was incubated for 1 hour or longer if necessary in the dark at 25° C., and the absorbance at 405 nm was read."}, "[3]": {"molecular_target": "T1, PapD", "assay": "ELISA: PapD binding to peptides coated on microtiter wells", "parameters": "made in house; species or system E. coli", "details": "peptide coated on microtiter wells, ELISA", "description": "The residues in the peptides were numbered starting with the carboxyl terminal residue as 1, and ending with the amino terminal residue. Peptides were also synthesized which deviated in length (G1'-16'WT, G1'-11'WT, G1'-7'WT) or sequence (G2'-21'amide, G1'-19'SV, G1'-19'NH2) from the wild type PapG carboxyl terminal sequence. Using an enzyme-linked immunosorbent assay (ELISA), we tested the ability of PapD to bind to each peptide coated on wells of microtiter plates:\n5 mg/ml stock solutions of peptides in water or 50% acetic acid were diluted to a concentration of 2.5 pmol/50 μl in PBS. 50 μl of the peptide solution was coated overnight onto microtiter wells (Nunc-Immuno Plate Maxisorp) at 4° C. The solutions in the plates were discarded, and the wells were blocked with 200 μl 3% bovine serum albumin (BSA, Sigma) in PBS (120 mM NaCl/2.7 mM KCl/10 mM phosphate buffer salts, pH 7.4) for 2 hours at 25° C. The plates were washed vigorously 3 times with PBS and incubated with 50 μl of the indicated amount of purified PapD (Lindberg et al, 1989). After 3 washes with PBS, the wells were incubated with a 1:500 dilution of anti-PapD rabbit antiserum (Lindberg et al, 1989) in 3% BSA/PBS for 45 min. at 25° C. After 3 washes with PBS, the wells were incubated with a 1:1000 dilution of goat anti-rabbit IgG coupled to alkaline phosphatase (Sigma) in 3% BSA/PBS for 45 min. at 25° C. Following 3 washes with PBS and 3 washes with developing buffer (10 mM diethanolamine pH 9.5, 0,5 mM MgCl2), 50 μl filtered p-nitrophenyl phosphate substrate (Sigma) in developing buffer (10 mg/ml) was added. The absorbance at 405 nm was read after 60 min of incubation in the dark at 25° C."}}}
{"substance": "NH2--KPGELSGSMTMVLSFP--COOH (H-KPGELSGSMTMVLSFP-OH) [G1'-16'WT]", "values": [{"measurement": "inhibition of PapD binding to immobilized G1'-19'WT by soluble peptide", "setting": "[1]", "value": "inhibited binding"}, {"measurement": "inhibition of binding of PapD to MBP-G1'-140' fusion protein", "setting": "[2]", "value": "significantly more potent"}, {"measurement": "binding of PapD to immobilized peptide", "setting": "[3]", "value": "binds"}]}
